In patent publication US8008542B2, “Compositions, cells, and plants that include BKI1, a negative regulator of BRI1-mediated BR signaling” (The Salk Institute for Biological Studies, priority 2007, dated 2011):
One block for each molecule: values may come before it.

Columns and labels:
endogenous BRI1 = molecular target: T1, endogenous BRI1 (Arabidopsis thaliana, UniProt O22476); assay: Immunoprecipitation from BKI1-FLAG plants; format: binding; conditions: immunoprecipitation with anti-FLAG
T1 construct: from tissue; host or cells: short-day grown seedlings of Col-0 transgenic plants expressing BKI1-FLAG
T1 sequence (O22476 24-1196): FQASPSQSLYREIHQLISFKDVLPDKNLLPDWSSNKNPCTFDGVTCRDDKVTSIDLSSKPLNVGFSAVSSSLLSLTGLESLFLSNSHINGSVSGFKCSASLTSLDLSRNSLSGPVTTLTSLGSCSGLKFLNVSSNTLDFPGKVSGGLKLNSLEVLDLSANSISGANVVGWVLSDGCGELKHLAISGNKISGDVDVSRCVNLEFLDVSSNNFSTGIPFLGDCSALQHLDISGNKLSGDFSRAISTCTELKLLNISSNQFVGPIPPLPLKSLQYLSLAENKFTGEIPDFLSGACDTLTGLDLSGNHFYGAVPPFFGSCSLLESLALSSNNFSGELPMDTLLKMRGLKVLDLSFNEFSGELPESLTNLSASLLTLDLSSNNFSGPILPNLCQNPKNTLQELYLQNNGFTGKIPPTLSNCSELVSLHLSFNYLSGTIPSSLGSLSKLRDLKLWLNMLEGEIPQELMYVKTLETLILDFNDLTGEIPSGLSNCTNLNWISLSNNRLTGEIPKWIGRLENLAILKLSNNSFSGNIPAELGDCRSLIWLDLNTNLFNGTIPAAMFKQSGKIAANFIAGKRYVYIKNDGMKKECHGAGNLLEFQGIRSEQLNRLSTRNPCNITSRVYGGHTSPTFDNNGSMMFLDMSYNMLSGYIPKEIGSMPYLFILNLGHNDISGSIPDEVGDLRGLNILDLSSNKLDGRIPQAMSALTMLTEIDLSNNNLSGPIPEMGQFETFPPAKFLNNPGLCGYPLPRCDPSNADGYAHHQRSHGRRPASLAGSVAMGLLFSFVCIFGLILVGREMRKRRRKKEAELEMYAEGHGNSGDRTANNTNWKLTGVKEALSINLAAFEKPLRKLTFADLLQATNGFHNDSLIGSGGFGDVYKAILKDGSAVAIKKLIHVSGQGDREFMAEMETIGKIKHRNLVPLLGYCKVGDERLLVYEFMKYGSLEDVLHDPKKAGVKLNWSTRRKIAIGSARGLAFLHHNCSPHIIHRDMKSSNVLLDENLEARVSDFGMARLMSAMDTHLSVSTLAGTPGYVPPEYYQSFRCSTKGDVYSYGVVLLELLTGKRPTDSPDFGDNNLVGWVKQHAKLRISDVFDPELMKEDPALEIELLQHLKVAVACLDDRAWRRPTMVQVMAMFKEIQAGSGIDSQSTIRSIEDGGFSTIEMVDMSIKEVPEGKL
Protocol: Short-day grown seedlings of Col-0 and transgenic plants containing BKI1-FLAG were ground to a fine powder in liquid nitrogen, and solubilized with 2× extraction buffer (100 mM Tris-HCl pH 7.5, 300 mM NaCl, 2 mM EDTA, 1% Triton, 10% glycerol, and protease inhibitor). The extracts were centrifuged at 5,000×g for 10 min, and the resultant supernatant was then spun at 100,000×g for 90 min at 4° C. to remove membrane fractions. The supernatant was incubated with pre-washed anti-FLAG M2 agarose gel (Sigma) for three hours at 4° C., and the agarose gel was washed five times with TBS Buffer containing 0.02% Tween 20. The immunoprecipitates were eluted with 1×SDS sample buffer by boiling for 5 min, separated on a 4-20% Novex Tris-Glycine SDS-PAGE gel (Invitrogen), transferred to PVDF membrane (Millipore), and detected with either anti-BRI1 antibody for endogenous BRI1 or monoclonal anti-FLAG M2 (Sigma) for BKI1-FLAG. Signals were visualized using the Odyssey Infrared Imaging system (LI-COR Biosciences Inc.).

[1] = molecular target: T2, interaction between the kinase domains of BRI1 and BAK1 (Arabidopsis thaliana, UniProt O22476); assay: GST pull-down of 35S-BRI1-KD-HIS by GST-BAK1-KD in vitro; format: binding; conditions: 10 μM of MBP-BKI1, five replicates, p=0.000013
T2 construct: His (C); made in house; host or cells: BRI1-KD-HIS: TNT T7 coupled reticulocyte lysate (Promega)
T2 sequence (O22476 883-1158 limits assumed): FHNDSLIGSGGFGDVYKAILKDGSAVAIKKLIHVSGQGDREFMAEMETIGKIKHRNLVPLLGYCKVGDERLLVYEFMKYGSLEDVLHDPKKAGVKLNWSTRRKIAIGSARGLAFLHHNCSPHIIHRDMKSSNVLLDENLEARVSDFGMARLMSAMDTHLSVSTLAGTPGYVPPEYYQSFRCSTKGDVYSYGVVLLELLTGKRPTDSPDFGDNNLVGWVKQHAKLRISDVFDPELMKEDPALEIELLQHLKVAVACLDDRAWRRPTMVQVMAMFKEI
Protocol: Seedlings were grown on MS medium containing 1 μM of BRZ220. The time of BL treatment is indicated. Top panels: BKI1-YFP; Lower panels: myriBKI1-YFP. […] Immunoblots with anti-GFP show levels of myriBKI1-YFP and BKI1-YFP. Bottom band: loading control. […] The total ^35S-Met labeled BRI1-KD-HIS co-precipitated by GST-BAK1-KD was defined as “1”. Five replicates were conducted. Error bars indicate standard error. 1, GST-BAK1-KD±35S-BRI1-KD-HIS; 2, GST-BAK1-KD+35S-BRI1-KD-HIS+10 μM of MBP; 3, GST-BAK1-KD+35S-BRI1-KD-HIS+10 μM of MBP-BKI1. […] Without BL, BRI1 kinase is kept in a basal state by both its own carboxyl terminal domain and by an interaction with BKI1. Brassinosteroid binding to the extracellular domain of BRI1 induces a conformational change of the kinase domain, leading to the phosphorylation of the C-terminal domain of BRI1 and BKI1, the dissociation of BKI1 from the plasma membrane, and the release of autoinhibition of BRI1. These events lead to the full activation of BRI1 and its association with BAK1 or other substrates. Plasma membrane-dissociated BKI1 may also regulate other unknown components in the brassinosteroid signaling cascade. BSU1 is a nuclear serine/threonine phosphatase involved in the dephosphorylation of BES1 (27). […]

interaction with endogenous BRI1 in vivo (endogenous BRI1): interacted
B1: BKI1-FLAG: BKI1 with three copies of FLAG fused at the C-terminal end (protein)
chain: METNLQQVKNSSQTFSEKQNPKQEASPSPISSTCSSPSHDFSFTISLQPLSSSSKHISPTLRSPSKTTSSYQQTDPFAVDLSPADEIFFHGHLLPLHLLSHLPVSPRTSTGSYNDGFTLPVKDILPDQPTNNNNNTENAITNISTEAKDDNTEDKAEGEIRVKTKPIKSFSLFGLSKWRKGFESNEREQEQQQQKIKKPMSLDLSHAVKKYIRMLFQKRGNGTQFWNRRQTSSYSFSSSLMGPNGNSKTMINGSYNKRDLIRGRRGELFSAPASMRTSPTNSGHLRVSTAGLSSSSGSTSSSSSDSTMEELQAAIQAAIAHCKNSSAVDRDDKVKDSDYKDDDDKVKLDYKDDDDKVKLDYKDDDDKVKL

inhibition of the interaction between the kinase domains of BRI1 and BAK1 [1]: approximately 62%
B2: MBP-BKI1: BKI1-maltose binding protein fusion (N-terminal MBP) (protein)
chain: METNLQQVKNSSQTFSEKQNPKQEASPSPISSTCSSPSHDFSFTISLQPLSSSSKHISPTLRSPSKTTSSYQQTDPFAVDLSPADEIFFHGHLLPLHLLSHLPVSPRTSTGSYNDGFTLPVKDILPDQPTNNNNNTENAITNISTEAKDDNTEDKAEGEIRVKTKPIKSFSLFGLSKWRKGFESNEREQEQQQQKIKKPMSLDLSHAVKKYIRMLFQKRGNGTQFWNRRQTSSYSFSSSLMGPNGNSKTMINGSYNKRDLIRGRRGELFSAPASMRTSPTNSGHLRVSTAGLSSSSGSTSSSSSDSTMEELQAAIQAAIAHCKNSSAVDRDDKVKDS
modifications: left off: large carriers
